Measurements reported in US20260078195A1.

Key:
[1] = target: human BCMA expressed on HEK293A cells (human) (UniProt Q02223); assay: FACS on HEK293A/human BCMA cells, PE goat anti-human IgG (H+L) secondary antibody, MFI
[2] = target: human CD3D&E protein (Cat #: CT038-H2508H, Sino biological) (human) (UniProt P04234); assay: SPR (BIAcore 8K), antibody captured by anti-human Fc on CM5 chip, antigen as analyte
[3] = target: human BCMA antigen (Cat #:BCA-H522y, ACRO) (human) (UniProt Q02223); assay: as above
[4] = target: mouse BCMA expressed on HEK293A cells (mouse) (UniProt O88472); assay: FACS on HEK293A/mouse BCMA cells, PE goat anti-human IgG (H+L) secondary antibody, MFI
[5] = target: human CD3 complex on Jurkat cells (human) (UniProt P07766); assay: FACS on Jurkat cells, PE goat anti-human IgG (H+L) secondary antibody, MFI
[6] = target: monkey BCMA expressed on HEK293A cells (monkey); assay: FACS on HEK293A/monkey BCMA cells, PE goat anti-human IgG (H+L) secondary antibody, MFI
[7] = target: human GPRC5D expressed on HEK293T cells (human) (UniProt Q9NZD1); assay: FACS on HEK293T/human GPRC5D cells, PE goat anti-human IgG (H+L) secondary antibody, MFI
[8] = target: human GPRC5D antigen (Cat #:HM05P, Kactus Biosystems) (human) (UniProt Q9NZD1); assay: SPR (BIAcore 8K), antibody captured by anti-human Fc on CM5 chip, antigen as analyte
Sequence of human GPRC5D antigen (Cat #:HM05P, Kactus Biosystems) (human) (Q9NZD1 whole entry): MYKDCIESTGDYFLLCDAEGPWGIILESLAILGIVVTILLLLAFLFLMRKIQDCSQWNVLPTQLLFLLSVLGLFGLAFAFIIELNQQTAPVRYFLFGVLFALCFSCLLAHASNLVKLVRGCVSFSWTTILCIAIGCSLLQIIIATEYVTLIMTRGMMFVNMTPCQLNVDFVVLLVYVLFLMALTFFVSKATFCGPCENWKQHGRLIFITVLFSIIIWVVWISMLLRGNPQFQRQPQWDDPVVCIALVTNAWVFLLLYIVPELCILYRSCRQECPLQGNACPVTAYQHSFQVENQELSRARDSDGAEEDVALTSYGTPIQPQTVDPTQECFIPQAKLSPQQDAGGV

Sequence of human BCMA antigen (Cat #:BCA-H522y, ACRO) (human) (Q02223 1-54 limits assumed): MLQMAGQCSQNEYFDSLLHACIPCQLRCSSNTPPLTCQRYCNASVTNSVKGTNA
Sequence of human CD3D&E protein (Cat #: CT038-H2508H, Sino biological) (human) (P04234 22-105, chain 1 of 2): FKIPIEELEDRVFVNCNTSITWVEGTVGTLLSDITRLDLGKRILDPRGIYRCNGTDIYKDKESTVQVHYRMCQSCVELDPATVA
Sequence of human CD3D&E protein (Cat #: CT038-H2508H, Sino biological) (human) (P07766 23-126, chain 2 of 2, further chain): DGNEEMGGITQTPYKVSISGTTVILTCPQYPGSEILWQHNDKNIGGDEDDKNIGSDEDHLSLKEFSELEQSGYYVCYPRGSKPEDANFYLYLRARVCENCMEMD
Sequence of human BCMA expressed on HEK293A cells (human) (Q02223 whole entry): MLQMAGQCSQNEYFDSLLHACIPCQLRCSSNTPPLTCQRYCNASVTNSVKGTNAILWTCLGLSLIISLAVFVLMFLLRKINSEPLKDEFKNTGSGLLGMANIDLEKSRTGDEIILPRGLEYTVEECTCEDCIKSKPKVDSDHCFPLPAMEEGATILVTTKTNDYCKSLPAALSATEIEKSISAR
Sequence of human CD3 complex on Jurkat cells (human) (P07766 23-207, chain 1 of 4): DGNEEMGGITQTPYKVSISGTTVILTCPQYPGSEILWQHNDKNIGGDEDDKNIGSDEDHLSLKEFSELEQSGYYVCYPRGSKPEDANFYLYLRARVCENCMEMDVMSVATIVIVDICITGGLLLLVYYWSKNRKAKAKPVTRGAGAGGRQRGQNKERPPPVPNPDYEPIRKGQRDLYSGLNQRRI
Sequence of human CD3 complex on Jurkat cells (human) (P04234 22-171, chain 2 of 4, further chain): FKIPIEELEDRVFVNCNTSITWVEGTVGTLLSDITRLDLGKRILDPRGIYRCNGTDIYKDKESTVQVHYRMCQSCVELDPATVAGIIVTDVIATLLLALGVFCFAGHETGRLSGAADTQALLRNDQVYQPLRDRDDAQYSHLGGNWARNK
Sequence of human CD3 complex on Jurkat cells (human) (P09693 23-182, chain 3 of 4, further chain): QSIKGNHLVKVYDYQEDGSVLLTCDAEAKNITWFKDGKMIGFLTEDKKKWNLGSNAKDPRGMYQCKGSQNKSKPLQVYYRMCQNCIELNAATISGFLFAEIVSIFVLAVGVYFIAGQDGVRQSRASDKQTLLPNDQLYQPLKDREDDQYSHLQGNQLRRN
Sequence of human CD3 complex on Jurkat cells (human) (P20963 22-164, chain 4 of 4, further chain): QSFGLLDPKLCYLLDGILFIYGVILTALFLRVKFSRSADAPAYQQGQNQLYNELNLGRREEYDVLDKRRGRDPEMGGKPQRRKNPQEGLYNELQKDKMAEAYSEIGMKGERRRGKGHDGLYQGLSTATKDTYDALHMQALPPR
Sequence of mouse BCMA expressed on HEK293A cells (mouse) (O88472 whole entry): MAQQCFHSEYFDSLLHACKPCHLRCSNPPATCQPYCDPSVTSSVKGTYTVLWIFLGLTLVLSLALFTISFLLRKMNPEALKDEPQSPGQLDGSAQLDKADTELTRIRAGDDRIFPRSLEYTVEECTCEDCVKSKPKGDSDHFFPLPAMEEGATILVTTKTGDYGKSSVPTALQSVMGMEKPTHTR
Sequence of human GPRC5D expressed on HEK293T cells (human) (Q9NZD1 whole entry): as the sequence (Q9NZD1 whole entry) above
Sequence of monkey BCMA expressed on HEK293A cells (monkey) (Q02223 other isoform, or with tags, fused parts or gaps): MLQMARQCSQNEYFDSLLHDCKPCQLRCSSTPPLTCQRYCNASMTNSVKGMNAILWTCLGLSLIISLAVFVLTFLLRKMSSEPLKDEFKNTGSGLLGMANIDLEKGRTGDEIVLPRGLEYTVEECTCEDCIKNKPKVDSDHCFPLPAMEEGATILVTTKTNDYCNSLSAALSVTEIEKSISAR

Row | EC50 (read off the curve) [1] [µg/mL] | Kd [2] [nM] | koff [2] [s⁻¹] | kon [2] [M⁻¹ s⁻¹] | Kd [3] [nM] | koff [3] [s⁻¹] | kon [3] [M⁻¹ s⁻¹] | EC50 (read off the curve) [4] [µg/mL] | EC50 (read off the curve) [5] [µg/mL] | EC50 (read off the curve) [6] [µg/mL] | EC50 (read off the curve) [7] [µg/mL] | Kd [8] [nM] | Substance
1 | 0.07 | 41 | 0.00757 | 185000 | 0.996 | 0.00227 | 2.28e+06 | 0.2 | 0.7 | 0.1 |  |  | EM801 (bi-specific BCMA×CD3 antibody) (bispecific antibody)
2 |  |  |  |  |  |  |  |  |  |  | 0.1 | 4.21 | JNJ-64407564 (bi-specific GPRC5D×CD3 antibody) (bispecific antibody)
